Type: physicochemical
Conditions: 0.5 mg/mL protein, 25 mM HEPES pH 7.5, 1 mM TCEP, scan 15 to 65° C. at 60° C./hour

WT Mpro: wild-type SARS-CoV-2 main protease (nsp5), recombinant from E. coli
temperature associated with the DSC thermogram peak: 57.2 °C
